± gives the uncertainty stated by the source.
Test: protein stability index of a GFP-peptide fusion (yeast GPS) (PSI 1-4); higher = more stable; sorted into four equal gates, so the index is relative within each strain
In short: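 Yeast carrying a pooled library were grown to mid-log phase in leucine-free medium. Each library plasmid expresses Cherry and has a tiled 17-residue yeast protein peptide fused downstream of GFP. Cells were sorted into four equal gates by GFP/Cherry ratio, and plasmids from each gate were PCR-amplified, Illumina-sequenced and assigned to strains by barcode. Summing, across gates, the read frequency times the gate number gave each peptide's protein stability index.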

| Sequence | protein stability index (doa10∆) | protein stability index (pdr5∆) | protein stability index (san1∆) | protein stability index (ubr1∆) |
| --- | --- | --- | --- | --- |
| SLSFGSGSAGANPAGAS [YJL041W/NSP1] | 2.92 ± 0.13 | 2.89 ± 0.13 | 2.75 ± 0.18 | 3.1 ± 0.085 |
| YARFKNDFFPGEVVYLR [ITC1] | 3.29 ± 0.083 | 1.99 ± 0.069 | 2.58 ± 0.1 | 3.22 ± 0.091 |
| EVYRTSLNTKKNEKLIL [SMC3] | 1.75 ± 0.082 | 1.96 ± 0.074 | 2.73 ± 0.13 | 2.35 ± 0.1 |
| SPMLYKVPDISSDGQLK [BRR2] | 2.52 ± 0.047 | 2.56 ± 0.045 | 2.61 ± 0.054 | 2.58 ± 0.03 |
| ELDQEYRSCETQDESEI [SMC4] | 3.11 ± 0.12 | 3.24 ± 0.21 | 2.67 ± 0.19 | 3.31 ± 0.091 |
| NVTKSSVGVIINKMVGN [RPL21A] | 2.17 ± 0.099 | 2.98 ± 0.11 | 2.46 ± 0.19 | 2.91 ± 0.13 |
| NMYTSTQKTELEIDNKD [SIR4] | 3.04 ± 0.069 | 3.01 ± 0.081 | 3.04 ± 0.068 | 3.06 ± 0.065 |
| KEDHPLEFYKDKFFNEV [SIR3] | 3.21 ± 0.086 | 3.2 ± 0.05 | 3.34 ± 0.055 | 3.43 ± 0.084 |
| MKRNCGQIITLFSSRRL [RMP1] | 2.3 ± 0.045 | 2.46 ± 0.053 | 2.42 ± 0.058 | 2.29 ± 0.071 |
| DFPHLTPKLQTQLSYLI [YCS4] | 2.82 ± 0.043 | 2.88 ± 0.045 | 2.79 ± 0.044 | 2.67 ± 0.038 |
| TVQLTFLIDVLKIYAQI [YCG1] | 1.58 ± 0.047 | 1.99 ± 0.05 | 1.74 ± 0.059 | 1.7 ± 0.042 |
| LALPVFHIGYFKATIQI [RPO31] | 1.51 ± 0.059 | 1.49 ± 0.043 | 1.87 ± 0.098 | 1.58 ± 0.044 |
| EPAEANEENDLDVDPAK [RPB2] | 3.3 ± 0.18 | 3.15 ± 0.19 | 3.17 ± 0.13 | 3.41 ± 0.17 |
| SKKLDVTVEQLRSIYHQ [NSL1] | 2.42 ± 0.067 | 2.25 ± 0.06 | 1.85 ± 0.055 | 2.08 ± 0.057 |
| NVFGQDNEDSDNLFGET [SWI3] | 3.37 ± 0.13 | 3.7 ± 0.13 | 3.23 ± 0.12 | 3.5 ± 0.094 |
| DKSTKTAEAPTLSFNFS [YOR098C/NUP1] | 3.27 ± 0.076 | 3.29 ± 0.083 | 3.24 ± 0.051 | 3.23 ± 0.084 |
| QHHVTDADKLSFNCENF [YML031W/NDC1] | 2.45 ± 0.065 | 2.28 ± 0.053 | 2.3 ± 0.058 | 2.2 ± 0.058 |
| TPAPKISYKKGAASNRT [RPL36A] | 2.98 ± 0.072 | 3.22 ± 0.06 | 3.17 ± 0.058 | 3.1 ± 0.042 |
| TLSKTTDSSALTYDRLE [PRE9] | 3.16 ± 0.1 | 2.99 ± 0.13 | 2.89 ± 0.1 | 2.94 ± 0.058 |
| NNKITQLIAKNVANVSG [SIR3] | 1.7 ± 0.067 | 1.88 ± 0.063 | 2.07 ± 0.094 | 2.35 ± 0.054 |
| STVKKKDIVNISIPKTC [REC8] | 2.71 ± 0.088 | 2.41 ± 0.063 | 2.53 ± 0.084 | 2.62 ± 0.054 |
| LMEEIESLKKELQIFKT [YIL149C/MLP2] | 2.94 ± 0.094 | 2.96 ± 0.068 | 2.82 ± 0.072 | 3.08 ± 0.055 |
| MENNEPAMAMEDLKNFI [SRB8] | 3.18 ± 0.074 | 3.29 ± 0.081 | 3.24 ± 0.043 | 3.08 ± 0.068 |
| KFPTRKIYMLYSLQPSV [RPC34] |  | 2.13 ± 0.23 |  |  |
| IDLEAPVQIVKRITQIT [RPS20] | 2.15 ± 0.12 | 2.23 ± 0.2 | 1.78 ± 0.14 | 2.2 ± 0.094 |
| ATPGRLIDSLENHLLVM [PRP28] | 2.66 ± 0.067 | 2.37 ± 0.05 | 2.06 ± 0.11 | 2.1 ± 0.06 |

| Sequence | protein stability index (doa10∆) | protein stability index (pdr5∆) | protein stability index (san1∆) | protein stability index (ubr1∆) |
| --- | --- | --- | --- | --- |
| ENDNLDNVSKNALDKLR [YCG1] | 3.29 ± 0.099 | 3.15 ± 0.16 | 3.08 ± 0.08 | 3.26 ± 0.1 |
| MSVEPVVVIDGKGHLVG [RPL16A] | 3.13 ± 0.15 | 3.42 ± 0.19 | 2.63 ± 0.11 | 3.1 ± 0.089 |
| HETLARSSEEINSDNQN [RPN3] | 3.15 ± 0.26 |  |  | 3.16 ± 0.19 |
| LAEKVEKASRQQRKQKK [RPS24A] | 3.65 ± 0.27 | 3.33 ± 0.11 | 3.35 ± 0.1 | 3.15 ± 0.2 |
| IEAGRAALYKEVYNVIA [RPO21] | 2.36 ± 0.085 | 1.88 ± 0.096 | 2.41 ± 0.13 | 2.82 ± 0.11 |
| EPLTEIKNVIVSNRVAA [RPP0] | 1.6 ± 0.076 | 2.1 ± 0.062 | 1.77 ± 0.11 | 1.95 ± 0.07 |
| KYDRILKEVPTYRYVSV [RPS25A] |  |  | 2.87 ± 0.22 | 2.89 ± 0.14 |
| VIGGNSLFHIVVDTEET [SMC3] | 2.73 ± 0.099 | 2.78 ± 0.091 | 2.54 ± 0.076 | 2.53 ± 0.06 |
| QLPSKFTCSCNSLTVDG [RPN14] | 2.2 ± 0.06 | 2.39 ± 0.062 | 2.17 ± 0.052 | 2.17 ± 0.036 |
| EPYVAYGYPSYSTIRQL [RPL7A] | 1.87 ± 0.044 | 2.14 ± 0.048 | 2.14 ± 0.058 | 2.23 ± 0.036 |
| AEHSQNKIDQSLQYIER [YJL041W/NSP1] | 3.17 ± 0.069 | 3.16 ± 0.043 | 3.21 ± 0.049 | 3.04 ± 0.048 |
| QASDPSKKKKNIKKKDT [RPC53] | 3.26 ± 0.17 | 3.5 ± 0.13 | 3.2 ± 0.088 | 3.3 ± 0.21 |
| VFSALKNLISRINTLPQ [ECM29] | 3.06 ± 0.12 | 2.36 ± 0.091 | 1.76 ± 0.22 | 2.71 ± 0.051 |
| TNAKIPQFDSTQPKSSS [SSN3] | 3.03 ± 0.042 | 3.01 ± 0.044 | 3.09 ± 0.039 | 2.98 ± 0.032 |
| LYYPQKPLGTTRAMEYL [RPB2] | 2.17 ± 0.089 | 2.9 ± 0.15 | 2.05 ± 0.14 | 2.83 ± 0.06 |
| SKLLQTTLKLSPSPILL [NUT1] | 2.4 ± 0.045 | 1.47 ± 0.051 | 1.72 ± 0.091 | 1.5 ± 0.046 |
| KGSSLASAASEAIRDPK [SSN8] | 2.43 ± 0.053 | 2.62 ± 0.063 | 2.65 ± 0.065 | 2.99 ± 0.049 |
| CIECQPKAMTDTDNECV [HRT1] | 3.26 ± 0.097 | 3.25 ± 0.093 | 2.94 ± 0.11 | 3.32 ± 0.062 |
| WTMRIEGRLLDNVQAND [SNF12] | 2.48 ± 0.09 | 2.96 ± 0.096 | 2.7 ± 0.065 | 2.93 ± 0.047 |
| VRSAEYYAKKRAFTKKV [RPL16B] | 2.66 ± 0.1 | 2.18 ± 0.066 | 2.61 ± 0.091 | 3.1 ± 0.063 |
| YVAIVVDPLKSLEDKIL [RRI1] | 1.12 ± 0.069 | 1.38 ± 0.07 |  | 1.68 ± 0.081 |
| KTGTKPAAVFAETLKHD [RPL4B] | 2.17 ± 0.078 | 1.95 ± 0.18 | 1.63 ± 0.16 | 2 ± 0.15 |
| EIIPLQDYYIIGANIYQ [MED6] | 2.97 ± 0.064 | 3.07 ± 0.052 | 3.16 ± 0.04 | 3.1 ± 0.044 |
| SVSPQMNAILTDVKLTL [SMD1] | 2.85 ± 0.047 | 2.85 ± 0.062 | 2.83 ± 0.04 | 3 ± 0.057 |
| PLAKIYLEENKSDSQYR [MED1] | 3.15 ± 0.086 | 3.18 ± 0.065 | 3.15 ± 0.059 | 3.16 ± 0.06 |
| IEAASTTQDQCKLTLDI [RPB8] | 2.92 ± 0.06 | 3.12 ± 0.077 | 2.81 ± 0.042 | 3.07 ± 0.078 |
